Assay in all cases: cell_activity; human T cells, 1 ug mRNA, day 3
What all share (conditions): tags: N-terminal SV40 NLS

Data set [1] concerns the target T1, B2M 13-14x.202 (Artificial Sequence).
T1 chain: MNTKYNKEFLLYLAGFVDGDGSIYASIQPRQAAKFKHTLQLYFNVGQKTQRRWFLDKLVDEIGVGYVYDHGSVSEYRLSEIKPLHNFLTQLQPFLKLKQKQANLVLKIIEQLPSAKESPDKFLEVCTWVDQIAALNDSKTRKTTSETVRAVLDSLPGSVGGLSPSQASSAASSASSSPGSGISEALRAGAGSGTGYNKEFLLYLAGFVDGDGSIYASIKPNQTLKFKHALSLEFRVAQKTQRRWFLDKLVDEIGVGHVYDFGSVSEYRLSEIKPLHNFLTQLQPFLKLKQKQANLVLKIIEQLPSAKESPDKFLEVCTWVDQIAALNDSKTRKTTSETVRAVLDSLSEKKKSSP
How it is done:
(§1) Donor human T cells were stimulated with anti-CD3 and anti-CD28 antibodies for 3 days, then electroporated with mRNA encoding a given B2M 13-14 meganuclease (1 μg) using the Amaxa 4D-Nucleofector (Lonza) according to the manufacturer's instructions. To look for the loss of B2M surface expression, cells were stained with an antibody recognizing β-2 microglobulin (BD Biosciences) as well as an antibody recognizing CD3 (BioLegend), a marker of T cells.

For data set [2], the target named is T2, B2M 13-14x.365 (Artificial Sequence).
T2 chain: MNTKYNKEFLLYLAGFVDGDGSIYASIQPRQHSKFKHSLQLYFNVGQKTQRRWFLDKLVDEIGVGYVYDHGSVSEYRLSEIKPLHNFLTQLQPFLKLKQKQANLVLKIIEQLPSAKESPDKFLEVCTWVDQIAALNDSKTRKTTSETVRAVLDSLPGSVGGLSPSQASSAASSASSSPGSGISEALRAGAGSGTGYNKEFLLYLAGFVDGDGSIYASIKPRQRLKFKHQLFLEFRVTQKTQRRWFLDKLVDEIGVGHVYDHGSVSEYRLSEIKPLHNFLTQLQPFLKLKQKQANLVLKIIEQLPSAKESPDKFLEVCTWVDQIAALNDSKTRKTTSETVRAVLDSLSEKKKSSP
How it is done: as §1

Data set [3] deals with T3, B2M 13-14x.556 (Artificial Sequence).
T3 chain: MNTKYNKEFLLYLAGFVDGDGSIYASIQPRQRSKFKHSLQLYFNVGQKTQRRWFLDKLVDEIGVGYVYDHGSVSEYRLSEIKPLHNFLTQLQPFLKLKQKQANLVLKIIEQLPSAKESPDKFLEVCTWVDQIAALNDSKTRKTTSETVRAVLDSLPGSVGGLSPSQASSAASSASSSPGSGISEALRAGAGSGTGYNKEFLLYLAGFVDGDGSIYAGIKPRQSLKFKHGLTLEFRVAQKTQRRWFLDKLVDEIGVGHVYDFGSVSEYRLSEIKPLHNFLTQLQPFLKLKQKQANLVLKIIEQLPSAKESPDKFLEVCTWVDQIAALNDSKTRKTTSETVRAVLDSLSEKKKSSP
The method, then: as §1

Data set [4] has as its target T4, B2M 13-14x.285 (Artificial Sequence).
T4 chain: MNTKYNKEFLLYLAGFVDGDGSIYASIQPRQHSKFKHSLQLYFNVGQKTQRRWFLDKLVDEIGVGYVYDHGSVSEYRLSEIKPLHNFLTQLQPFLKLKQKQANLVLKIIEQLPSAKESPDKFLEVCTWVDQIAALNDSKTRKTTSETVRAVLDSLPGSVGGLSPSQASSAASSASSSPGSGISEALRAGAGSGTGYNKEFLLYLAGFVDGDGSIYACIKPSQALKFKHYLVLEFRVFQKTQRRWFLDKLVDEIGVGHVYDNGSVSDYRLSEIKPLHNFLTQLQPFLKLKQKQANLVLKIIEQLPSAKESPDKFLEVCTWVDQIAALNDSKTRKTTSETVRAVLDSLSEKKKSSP
How it is done:
as §1

Data set [5] has as its target T5, B2M 13-14x.378 (Artificial Sequence).
T5 chain: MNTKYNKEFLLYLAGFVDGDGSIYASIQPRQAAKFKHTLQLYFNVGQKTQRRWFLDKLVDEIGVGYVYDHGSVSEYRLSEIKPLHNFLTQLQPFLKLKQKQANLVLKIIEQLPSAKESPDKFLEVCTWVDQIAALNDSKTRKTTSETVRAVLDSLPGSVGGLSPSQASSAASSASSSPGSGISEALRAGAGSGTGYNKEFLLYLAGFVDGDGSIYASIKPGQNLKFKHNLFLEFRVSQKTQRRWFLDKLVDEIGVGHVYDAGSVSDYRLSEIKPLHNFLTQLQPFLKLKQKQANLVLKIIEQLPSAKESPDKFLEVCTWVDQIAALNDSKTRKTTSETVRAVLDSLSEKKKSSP
How it is done:
as §1

The target of data set [6] is T6, B2M 13-14x.456 (Artificial Sequence).
T6 chain: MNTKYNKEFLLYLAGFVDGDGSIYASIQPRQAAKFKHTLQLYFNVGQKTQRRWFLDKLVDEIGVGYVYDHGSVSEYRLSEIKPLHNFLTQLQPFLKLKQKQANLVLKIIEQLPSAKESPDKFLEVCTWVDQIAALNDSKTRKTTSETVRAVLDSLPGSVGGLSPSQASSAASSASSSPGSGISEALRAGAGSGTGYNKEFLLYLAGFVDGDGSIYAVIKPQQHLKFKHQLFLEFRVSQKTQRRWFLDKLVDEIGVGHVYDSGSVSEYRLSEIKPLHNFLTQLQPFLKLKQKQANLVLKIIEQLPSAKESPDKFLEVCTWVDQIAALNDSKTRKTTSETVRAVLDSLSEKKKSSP
How it is done:
as §1

The target in data set [7] is T7, B2M 13-14x.338 (Artificial Sequence).
T7 chain: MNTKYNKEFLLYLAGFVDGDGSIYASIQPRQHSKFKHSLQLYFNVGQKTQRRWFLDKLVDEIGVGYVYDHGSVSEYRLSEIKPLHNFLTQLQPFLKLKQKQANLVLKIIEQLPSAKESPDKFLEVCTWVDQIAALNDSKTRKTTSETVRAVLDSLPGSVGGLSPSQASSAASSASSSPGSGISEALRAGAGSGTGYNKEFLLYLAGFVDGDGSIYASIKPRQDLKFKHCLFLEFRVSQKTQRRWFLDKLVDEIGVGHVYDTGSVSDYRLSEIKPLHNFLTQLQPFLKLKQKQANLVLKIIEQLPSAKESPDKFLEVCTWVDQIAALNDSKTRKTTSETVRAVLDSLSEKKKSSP
The method, then:
as §1

B1: B2M 13-14 recognition sequence (dsDNA)
DNA 1: CTATCTCTTGTACTACACTGAA
DNA 2: TTCAGTGTAGTACAAGAGATAG
Regarding B1, the activity came out at 60.9 % B2M-negative in data set [1]; 27.4 % B2M-negative in data set [2]; 11.8 % B2M-negative in data set [3]; 22 % B2M-negative in data set [4]; 3.54 % B2M-negative in data set [5]; 15.7 % B2M-negative in data set [6]. For the same molecule, the activity in data set [7] worked out at 4.68 % B2M-negative.
